Source: the supplement of paper PMC10567573

B1: RHOBTB3 (parent)
chain: GGADIIVIKYNVNDKFSFHEVKDN

Variants of: B1
Assay: protein stability index of a GFP-peptide fusion (GPS, HEK-293T) (PSI 1-6); higher = more stable
Settings: c terminus: a fixed tail appended
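Note: lentivirally expressed fusions sorted by FACS into six bins by GFP to DsRed ratio, PSI derived from sequencing read proportions per bin multiplied by bin number.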

Variant | protein stability index
GGADIIVIKYNVNDKFSFEEVKDN | 2.5
GGADIIVIKYNVNDKFSFNEVKDN | 3.79
GGADIIVIKYNVNDKFSFSEVKDN | 2.72
GGADIIVIKYNVNDKFSFGEVKDN | 2.55
GGADIIVIKYNVNDKFSFKEVKDN | 2.44
GGADIIVIKYNVNDKFSFTEVKDN | 2.52
GGADIIVIKYNVNDKFSFYEVKDN | 3.29
GGADIIVIKYNVNDKFSFDEVKDN | 1.95
GGADIIVIKYNVNDKFSFQEVKDN | 3.57
GGADIIVIKYNVNDKFSFPEVKDN | 2.55
GGADIIVIKYNVNDKFSFCEVKDN | 3.17
GGADIIVIKYNVNDKFSFVEVKDN | 2.72
GGADIIVIKYNVNDKFSFFEVKDN | 3.33
GGADIIVIKYNVNDKFSFAEVKDN | 2.27
GGADIIVIKYNVNDKFSFMEVKDN | 3.71
GGADIIVIKYNVNDKFSFREVKDN | 2.82
GGADIIVIKYNVNDKFSFIEVKDN | 1.54
GGADIIVIKYNVNDKFSFHECKDN | 1.96
GGADIIVIKYNVNDKFSFHEDKDN | 1.3
GGADIIVIKYNVNDKFSFHEAKDN | 3.15
GGADIIVIKYNVNMKFSFHEVKDN | 1.62
GGADIIVIKYNVNYKFSFHEVKDN | 3.38
GGADIIVIKYNVNNKFSFHEVKDN | 3.12
GGADIIVIKYNVNVKFSFHEVKDN | 4.54

Variant | protein stability index
GGADIIVIKYNVNFKFSFHEVKDN | 3.63
GGADIIVIKYNVNEKFSFHEVKDN | 2.8
GGADIIVIKYNVNWKFSFHEVKDN | 2.63
GGADIIVIKYNVNAKFSFHEVKDN | 3.34
GGADIIVIKYNVNTKFSFHEVKDN | 2.67
GGADIIVIKYNVNGKFSFHEVKDN | 1.72
GGADIIVIKYNVNRKFSFHEVKDN | 2.36
GGADIIVIKYNVNKKFSFHEVKDN | 3.14
GGADIIVIKYNVNHKFSFHEVKDN | 2.94
GGADIIVIKYNVNSKFSFHEVKDN | 3.4
GGADIIVIKYNVNIKFSFHEVKDN | 4.53
GGADIIVIKYNDNDKFSFHEVKDN | 1.95
GGADIIVIKYNHNDKFSFHEVKDN | 1.92
GGADIIVIKYNLNDKFSFHEVKDN | 2.24
GGADIIVIKYNANDKFSFHEVKDN | 2.83
GGADIIVIKYNNNDKFSFHEVKDN | 2.66
GGADIIVIKYNSNDKFSFHEVKDN | 1.9
GGADIIVIKYNRNDKFSFHEVKDN | 2.8
GGADIIVIKYNGNDKFSFHEVKDN | 2.7
GGADIIVIKYNMNDKFSFHEVKDN | 2.67
GGADIIVIKYNINDKFSFHEVKDN | 3.31
GGADIIVIKYNENDKFSFHEVKDN | 1.72
GGADIIVIKYNQNDKFSFHEVKDN | 2.3
GGADIIVIKYNYNDKFSFHEVKDN | 2.38

Variant | protein stability index
GGADIIVIKYNPNDKFSFHEVKDN | 2.13
GGADIIVIKYNWNDKFSFHEVKDN | 3.56
GGADIIVIKYNTNDKFSFHEVKDN | 2.73
GGADIIVIKYNKNDKFSFHEVKDN | 1.82
GGADIIVIKYNVEDKFSFHEVKDN | 2.71
GGADIIVIKYNVADKFSFHEVKDN | 3.68
GGADIIVIKYNVPDKFSFHEVKDN | 3.19
GGADIIVIKYNVLDKFSFHEVKDN | 2.87
GGADIIVIKYNVTDKFSFHEVKDN | 1.57
GGADIIVIKYNVIDKFSFHEVKDN | 2.93
GGADIIVIKYNVYDKFSFHEVKDN | 1.67
GGADIIVIKYNVVDKFSFHEVKDN | 3.83
GGADIIVIKYNVFDKFSFHEVKDN | 3.47
GGADIIVIKYNVWDKFSFHEVKDN | 1.96
GGADIIVIKYNVKDKFSFHEVKDN | 2.92
GGADIIVIKYNVRDKFSFHEVKDN | 1.99
GGADIIVIKYNVDDKFSFHEVKDN | 1.88
GGADIIVIKYNVHDKFSFHEVKDN | 2.57
GGADIIVIKYNVQDKFSFHEVKDN | 3.3
GGADIIVIKYNVNDKMSFHEVKDN | 2.04
GGADIIVIKYNVNDKASFHEVKDN | 2.24
GGADIIVIKYNVNDKRSFHEVKDN | 1.6
GGADIIVIKYNVNDKGSFHEVKDN | 2.74
GGADIIVIKYNVNDKLSFHEVKDN | 1.63

Variant | protein stability index
GGADIIVIKYNVNDKPSFHEVKDN | 2.55
GGADIIVIKYNVNDKESFHEVKDN | 2.12
GGADIIVIKYNVNDKQSFHEVKDN | 1.85
GGADIIVIKYNVNDKISFHEVKDN | 2.88
GGADIIVIKYNVNDKWSFHEVKDN | 4.02
GGADIIVIKYNVNDKHSFHEVKDN | 1.53
GGADIIVIKYNVNDKSSFHEVKDN | 3.13
GGADIIVIKYNVNDKTSFHEVKDN | 2.33
GGADIIVIKYNVNDKNSFHEVKDN | 1.84
GGADIIVIKYNVNDKVSFHEVKDN | 1.98
GGADIIVIKYNVNDKKSFHEVKDN | 1.73
GGADIIVIKYNVNDKDSFHEVKDN | 2.07
GGADIIVIKYNVNDKYSFHEVKDN | 2.62
GGADIIVIKYNVNDKCSFHEVKDN | 2.2
GGADIIVIKYHVNDKFSFHEVKDN | 3.1
GGADIIVIKYIVNDKFSFHEVKDN | 2.24
GGADIIVIKYSVNDKFSFHEVKDN | 2.23
GGADIIVIKYFVNDKFSFHEVKDN | 1.97
GGADIIVIKYVVNDKFSFHEVKDN | 3.99
GGADIIVIKYRVNDKFSFHEVKDN | 2.45
GGADIIVIKYWVNDKFSFHEVKDN | 3.58
GGADIIVIKYPVNDKFSFHEVKDN | 3.2
GGADIIVIKYAVNDKFSFHEVKDN | 2.36
GGADIIVIKYQVNDKFSFHEVKDN | 3.46

Variant | protein stability index
GGADIIVIKYDVNDKFSFHEVKDN | 2.29
GGADIIVIKYMVNDKFSFHEVKDN | 3.72
GGADIIVIKYEVNDKFSFHEVKDN | 1.76
GGADIIVIKYGVNDKFSFHEVKDN | 3.11
GGADIIVIKYTVNDKFSFHEVKDN | 2.43
GGADIIVIKYKVNDKFSFHEVKDN | 4.82
GGADIIVIKYNVNDKFRFHEVKDN | 2.35
GGADIIVIKYNVNDKFVFHEVKDN | 1.73
GGADIIVIKYNVNDKFPFHEVKDN | 2.54
GGADIIVIKYNVNDKFTFHEVKDN | 2.25
GGADIIVIKYNVNDKFKFHEVKDN | 3.18
GGADIIVIKYNVNDKFIFHEVKDN | 2.65
GGADIIVIKYNVNDKFAFHEVKDN | 3.54
GGADIIVIKYNVNDKFHFHEVKDN | 2.69
GGADIIVIKYNVNDKFEFHEVKDN | 2.94
GGADIIVIKYNVNDKFNFHEVKDN | 3.14
GGADIIVIKYNVNDKFQFHEVKDN | 2.36
GGADIIVIKYNVNDKFDFHEVKDN | 2.64
GGADIIVIKYNVNDKFGFHEVKDN | 2.54
GGADIIVIKYNVNDKFCFHEVKDN | 2.27
GGADIIVIKYNVNDKFFFHEVKDN | 3.05
GGADIIVIKYNVNDKFYFHEVKDN | 1.63
GGADIIVIKLNVNDKFSFHEVKDN | 3.82
GGADIIVIKKNVNDKFSFHEVKDN | 1.82

Variant | protein stability index
GGADIIVIKFNVNDKFSFHEVKDN | 2.26
GGADIIVIKENVNDKFSFHEVKDN | 2.29
GGADIIVIKPNVNDKFSFHEVKDN | 2.77
GGADIIVIKVNVNDKFSFHEVKDN | 3.23
GGADIIVIKDNVNDKFSFHEVKDN | 3.68
GGADIIVIKRNVNDKFSFHEVKDN | 2.53
GGADIIVIKANVNDKFSFHEVKDN | 1.27
GGADIIVIKTNVNDKFSFHEVKDN | 1.92
GGADIIVIKQNVNDKFSFHEVKDN | 1.62
GGADIIVIKHNVNDKFSFHEVKDN | 1.92
GGADIIVIKNNVNDKFSFHEVKDN | 2.03
GGADIIVIKSNVNDKFSFHEVKDN | 1.88
GGADIIVIKCNVNDKFSFHEVKDN | 3.4
GGADIIVIKMNVNDKFSFHEVKDN | 1.94
GGADIIVIKINVNDKFSFHEVKDN | 4.15
GGADIIVIKGNVNDKFSFHEVKDN | 2.19
GGADIIVIKWNVNDKFSFHEVKDN | 3.26
GGADIIVIKYNVNDKFSFHRVKDN | 2.93
GGADIIVIKYNVNDKFSFHHVKDN | 1.9
GGADIIVIKYNVNDKFSFHAVKDN | 1.55
GGADIIVIKYNVNDKFSFHIVKDN | 2.61
GGADIIVIKYNVNDKFSFHNVKDN | 3.38
GGADIIVIKYNVNDKFSFHTVKDN | 1.52
GGADIIVIKYNVNDKFSFHWVKDN | 2.67

Variant | protein stability index
GGADIIVIKYNVNDKFSFHVVKDN | 2.1
GGADIIVIKYNVNDKFSFHGVKDN | 2.78
GGADIIVIKYNVNDKFSFHSVKDN | 2.76
GGADIIVIKYNVNDKFSFHKVKDN | 1.88
GGADIIVIKYNVNDKFSFHYVKDN | 2.26
GGADIIVIKYNVNDKFSFHLVKDN | 2.02
GGADIIVIKYNVNDKFSFHMVKDN | 2.91
GGADIIVIKYNVNDKFSFHPVKDN | 1.33
GGADIIVIKYNVNDKFSFHCVKDN | 3.82
GGADIIVIKYNVNDKFSFHFVKDN | 2.75
GGADIIVIKYNVNDKFSFHDVKDN | 3.45
GGADIIVIKYNVNDPFSFHEVKDN | 2.59
GGADIIVIKYNVNDHFSFHEVKDN | 2.87
GGADIIVIKYNVNDQFSFHEVKDN | 2.13
GGADIIVIKYNVNDCFSFHEVKDN | 4.37
GGADIIVIKYNVNDLFSFHEVKDN | 3.48
GGADIIVIKYNVNDWFSFHEVKDN | 3.18
GGADIIVIKYNVNDSFSFHEVKDN | 2.73
GGADIIVIKYNVNDNFSFHEVKDN | 3.83
GGADIIVIKYNVNDGFSFHEVKDN | 4.47
GGADIIVIKYNVNDEFSFHEVKDN | 2.03
GGADIIVIKYNVNDYFSFHEVKDN | 2.75
GGADIIVIKYNVNDFFSFHEVKDN | 2.8
GGADIIVIKYNVNDVFSFHEVKDN | 3.95

Variant | protein stability index
GGADIIVIKYNVNDDFSFHEVKDN | 4.13
GGADIIVIKYNVNDKFSCHEVKDN | 3.13
GGADIIVIKYNVNDKFSGHEVKDN | 2.03
GGADIIVIKYNVNDKFSDHEVKDN | 2.26
GGADIIVIKYNVNDKFSMHEVKDN | 1.87
GGADIIVIKYNVNDKFSAHEVKDN | 3.47
GGADIIVIKYNVNDKFSRHEVKDN | 4.04
GGADIIVIKYNVNDKFSNHEVKDN | 1.39
GGADIIVIKYNVNDKFSPHEVKDN | 1.95
GGADIIVIKYNVNDKFSWHEVKDN | 2.08
GGADIIVIKYNVNDKFSEHEVKDN | 1.76
GGADIIVIKYNVNDKFSYHEVKDN | 2.72
GGADIIVIKYNVNDKFSVHEVKDN | 2.49
GGADIIVIKYNVNDKFSLHEVKDN | 2.53
GGADIIVIKYNVNDKFSHHEVKDN | 1.76
GGADIIVIKYNVNDKFSTHEVKDN | 2.63
GGADIIVIKYNVNDKFSSHEVKDN | 1.86
GGADIIVIKYNVNDKFSKHEVKDN | 1.78
GGADIIVIKYNVNDKFSIHEVKDN | 1.95
GGADIIVIKYNVNDKFSQHEVKDN | 1.99
